The test system of one test is 22Rv1 cells. As to the kind of experiment: Matrigel invasion assay, 22Rv1 cells. The class given is cell-based, human. As to conditions: 24 h. How it is done: (§1) Four human PCa cell lines LNCaP, 22Rv1, PC-3, and DU145 were purchased from American Type Culture Collection [ATCC] (Manassas, Va.). The immortalized PNT2 normal human prostate epithelial cells (cat No. 95012613) were obtained from European Collection of Cell Cultures (ECACC), (Sigma-Aldrich, St. Louis, Mo.). LNCaP, 22Rv1, DU145 and PNT2 cells lines were cultured in RPMI-1640 medium, supplemented with 10% fetal bovine serum (FBS) and 1% pest (penicillin and streptomycin). PC-3 cells were grown in Hyclone Ham's F12 medium supplemented with 10% FBS and 1% pest. All in vitro experiments were performed when cells were ˜70% confluent. For invasion assay experiments cells were grown in serum free medium (SFM) for 24 hours. RPMI-1640 medium (R0883), FBS (F6178), penicillin streptomycin (P0781) were purchased from Sigma-Aldrich, whereas Ham's F12 medium (SH30026.01) was obtained from Thermo-Scientific (Waltham, Mass.). All cell lines were regularly tested for the absence of mycoplasma infection.
(§2) Cell invasion capacities were measured in a standard commercial invasion assay. In this study the inventors used BD BioCoat™ Matrigel™ Invasion Chambers (BD Biosciences, Bedford, Mass.) in accordance with the manufacturer's protocol. […] Invaded cells were counted either in an 460 inverted microscope or in Olympus BX51 Fluorescence Microscope (Olympus optical Co. Ltd, Japan).

In the next test the test system is DU145 cells. As to the kind of experiment: Matrigel invasion assay, DU145 cells. As to conditions: 24 h. Type of test: cell-based, human. The procedure:
as §1, §2

The test system of the next test is LNCaP cells. Put plainly: Matrigel invasion assay, LNCaP cells. As to conditions: rWnt5a 0.4 μg/ml, 24 h, vs vehicle; FIG. 3B. Type of test: cell-based, human. How it is done:
as §1, §2

Test [1] deals with PC3 cells. Put plainly: Matrigel invasion assay, PC3 cells. The class given is cell-based, human. As to conditions: rWnt5a 0.4 μg/ml, 24 h, vs vehicle; FIG. 3B. The procedure: as §1, §2
The test system of test [2] is PC3 cells. As to conditions: addition of rWnt5a to PC3 cells; report by Wang et al [26]; cited from earlier work.

Where no end group is shown, it is not given here. The star is where a group is joined. For = O=C*

In the case of “formylated derivative of MDGCEL (SEQ. ID. NO. 2) (For-MDGCEL; listed as Homo sapiens) [Foxy-5, the N-formylated hexapeptide Foxy5, Wnt5a derived peptide]”, the relative invasion entry in the test with 22Rv1 cells (Foxy-5 100 microM, FIG. 6A) was “significantly inhibited the invasion”; with DU145 cells (Foxy-5 100 microM, FIG. 6B), “significantly inhibited the invasion”.

B1: rWnt5a: recombinant Wnt5a protein (rWnt5a, R&D Systems, Minneapolis, Minn.) (protein, UniProt P41221 62-380, looked up)
Protein Wnt-5a: IIGAQPLCSQLAGLSQGQKKLCHLYQDHMQYIGEGAKTGIKECQYQFRHRRWNCSTVDNTSVFGRVMQIGSRETAFTYAVSAAGVVNAMSRACREGELSTCGCSRAARPKDLPRDWLWGGCGDNIDYGYRFAKEFVDARERERIHAKGSYESARILMNLHNNEAGRRTVYNLADVACKCHGVSGSCSLKTCWLQLADFRKVGDALKEKYDSAAAMRLNSRGKLVQVNSRFNSPTTQDLVYIDPSPDYCVRNESTGSLGTQGRLCNKTSEGMDGCELMCCGRGYDQFKTVQTERCHCKFHWCCYVKCKKCTEIVDQFVCK
As to B1, the relative invasion result is “decreased the invasive behavior” in the test with 22Rv1 cells (rWnt5a 0.4 μg/ml, vs vehicle, p=0.0001, FIG. 3B); “decreased the invasive behavior” in the test with DU145 cells (rWnt5a 0.4 μg/ml, vs vehicle, p<0.0001, FIG. 3B); “Neither the LNCaP nor the PC3 cells did respond” in the test on LNCaP cells; “Neither the LNCaP nor the PC3 cells did respond” in the test with PC3 cells [1]. Further, the “response in migration wound scratch assay” value with PC3 cells [2] is given as “did not respond”.

Source of the values: patent publication US9278119B2, “Treatment of prostate cancer and a method for determining the prognosis for prostate cancer patients” (WNTRESEARCH AB, priority 2011, dated 2016).
